Literature values in paper PMC2613885.

Molecular target: Robo1 (Homo sapiens) (UniProt Q9Y6N7)
Sequence (Q9Y6N7 26-897): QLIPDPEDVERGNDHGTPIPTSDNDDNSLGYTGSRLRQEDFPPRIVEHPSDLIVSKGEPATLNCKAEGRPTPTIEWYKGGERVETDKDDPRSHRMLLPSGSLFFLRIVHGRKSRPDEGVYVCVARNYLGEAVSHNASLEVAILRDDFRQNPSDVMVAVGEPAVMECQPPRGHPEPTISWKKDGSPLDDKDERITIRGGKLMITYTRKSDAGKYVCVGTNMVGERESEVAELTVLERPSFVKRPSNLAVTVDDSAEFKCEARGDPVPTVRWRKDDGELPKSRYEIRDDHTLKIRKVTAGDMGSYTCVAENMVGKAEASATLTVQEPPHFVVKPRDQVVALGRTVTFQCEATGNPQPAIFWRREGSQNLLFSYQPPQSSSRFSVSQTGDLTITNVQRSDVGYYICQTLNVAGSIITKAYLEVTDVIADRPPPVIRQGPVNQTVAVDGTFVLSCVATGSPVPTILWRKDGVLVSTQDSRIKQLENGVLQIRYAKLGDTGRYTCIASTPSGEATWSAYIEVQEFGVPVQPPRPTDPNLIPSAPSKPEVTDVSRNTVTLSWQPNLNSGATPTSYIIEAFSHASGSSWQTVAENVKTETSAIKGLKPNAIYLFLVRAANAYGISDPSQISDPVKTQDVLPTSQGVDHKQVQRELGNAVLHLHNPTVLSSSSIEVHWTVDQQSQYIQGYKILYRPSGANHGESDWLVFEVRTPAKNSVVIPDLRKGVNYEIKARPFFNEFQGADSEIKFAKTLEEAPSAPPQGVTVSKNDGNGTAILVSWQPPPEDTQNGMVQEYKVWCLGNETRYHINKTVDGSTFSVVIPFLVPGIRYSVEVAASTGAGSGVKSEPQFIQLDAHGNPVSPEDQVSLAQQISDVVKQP

Chain of Slit2 (O94813 31-1529): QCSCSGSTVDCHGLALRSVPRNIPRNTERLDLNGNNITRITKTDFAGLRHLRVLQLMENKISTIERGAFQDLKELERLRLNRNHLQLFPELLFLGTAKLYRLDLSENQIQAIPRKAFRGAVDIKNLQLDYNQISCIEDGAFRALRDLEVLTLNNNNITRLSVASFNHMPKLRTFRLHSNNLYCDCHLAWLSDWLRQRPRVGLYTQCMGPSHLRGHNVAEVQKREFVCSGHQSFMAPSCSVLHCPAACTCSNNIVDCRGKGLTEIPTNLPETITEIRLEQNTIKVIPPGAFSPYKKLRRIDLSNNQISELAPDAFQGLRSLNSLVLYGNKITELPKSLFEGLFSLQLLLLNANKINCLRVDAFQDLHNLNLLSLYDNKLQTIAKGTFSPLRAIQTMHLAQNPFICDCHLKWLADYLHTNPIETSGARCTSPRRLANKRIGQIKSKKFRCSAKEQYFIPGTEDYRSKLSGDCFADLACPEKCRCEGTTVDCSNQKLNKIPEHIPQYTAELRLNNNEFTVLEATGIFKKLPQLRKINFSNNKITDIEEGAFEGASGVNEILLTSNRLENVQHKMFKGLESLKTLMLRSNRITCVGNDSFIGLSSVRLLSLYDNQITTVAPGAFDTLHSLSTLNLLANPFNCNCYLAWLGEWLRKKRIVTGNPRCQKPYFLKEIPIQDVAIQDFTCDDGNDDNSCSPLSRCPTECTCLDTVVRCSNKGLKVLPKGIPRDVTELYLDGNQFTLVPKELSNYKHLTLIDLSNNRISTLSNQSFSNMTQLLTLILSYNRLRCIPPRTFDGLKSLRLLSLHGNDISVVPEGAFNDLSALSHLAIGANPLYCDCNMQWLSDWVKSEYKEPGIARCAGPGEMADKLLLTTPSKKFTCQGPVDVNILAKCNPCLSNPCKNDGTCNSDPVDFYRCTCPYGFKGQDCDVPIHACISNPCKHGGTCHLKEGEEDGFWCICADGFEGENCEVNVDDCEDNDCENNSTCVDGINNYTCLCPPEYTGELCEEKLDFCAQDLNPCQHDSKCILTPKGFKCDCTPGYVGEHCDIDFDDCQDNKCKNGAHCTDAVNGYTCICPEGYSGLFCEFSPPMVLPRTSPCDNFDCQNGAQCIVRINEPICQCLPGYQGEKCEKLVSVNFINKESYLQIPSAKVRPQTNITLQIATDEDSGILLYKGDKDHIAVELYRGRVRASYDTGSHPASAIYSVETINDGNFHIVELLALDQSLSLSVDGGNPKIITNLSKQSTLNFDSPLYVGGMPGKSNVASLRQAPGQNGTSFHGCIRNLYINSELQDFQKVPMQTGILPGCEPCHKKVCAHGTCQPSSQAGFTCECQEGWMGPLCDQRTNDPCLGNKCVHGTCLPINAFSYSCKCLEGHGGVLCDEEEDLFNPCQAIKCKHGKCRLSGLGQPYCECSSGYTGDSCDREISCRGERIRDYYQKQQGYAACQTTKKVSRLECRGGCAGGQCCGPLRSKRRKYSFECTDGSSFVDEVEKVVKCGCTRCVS

Kd: 9 nM
Substance: Slit2 (from UniProt O94813)
